Measured values published in the Human Domainome abundance scans (Beltran et al. 2025).
± gives the uncertainty stated by the source.

B1: POU domain, class 4, transcription factor 2, residues 256 to 327; numbered along this chain, Q12837 (parent)
chain: RDLEAFAERFKQRRIKLGVTQADVGSALANLKIPGVGSLSQSTICRFESLTLSHNNMIALKPILQAWLEEAE

Variants of: B1
Assay: abundance fitness (aPCA) (normalised: wild type 0, dead -1); higher = more abundant; growth selection in yeast, the domain comes from the species named
Settings: Homo sapiens

Variant	abundance fitness
RDLEAFAERFKQRRIKLGVTQADVGSALANLKIPGIGSLSQSTICRFESLTLSHNNMIALKPILQAWLEEAE [V36I]	0.166 ± 0.17
RDLEAFAERFKQRRIKLGVTQADVGSALANLKIPGAGSLSQSTICRFESLTLSHNNMIALKPILQAWLEEAE [V36A]	-0.18 ± 0.085
RDLEAFAERFKQRRIKLGVTQADVGSALANLKIPGYGSLSQSTICRFESLTLSHNNMIALKPILQAWLEEAE [V36Y]	-0.047 ± 0.25
RDLEAFAERFKQRRIKLGVTQADVGSALANLKIPGRGSLSQSTICRFESLTLSHNNMIALKPILQAWLEEAE [V36R]	-0.617 ± 0.071
RDLEAFAERFKQRRIKLGVTQADVGSALANLKIPGDGSLSQSTICRFESLTLSHNNMIALKPILQAWLEEAE [V36D]	-0.278 ± 0.21
RDLEAFAERFKQRRIKLGVTQADVGSALANLKIPGLGSLSQSTICRFESLTLSHNNMIALKPILQAWLEEAE [V36L]	0.061 ± 0.046
RDLEAFAERFKQRRIKLGVTQADVGSALANLKIPGKGSLSQSTICRFESLTLSHNNMIALKPILQAWLEEAE [V36K]	-0.532 ± 0.14
RDLEAFAERFKQRRIKLGVTQADVGSALANLKIPGCGSLSQSTICRFESLTLSHNNMIALKPILQAWLEEAE [V36C]	-0.4 ± 0.15
RDLEAFAERFKQRRIKLGVTQADVGSALANLKIPGMGSLSQSTICRFESLTLSHNNMIALKPILQAWLEEAE [V36M]	-0.203 ± 0.11
RDLEAFAERFKQRRIKLGVTQADVGSALANLKIPGNGSLSQSTICRFESLTLSHNNMIALKPILQAWLEEAE [V36N]	-0.387 ± 0.19
RDLEAFAERFKQRRIKLGVTQADVGSALANLKIPGSGSLSQSTICRFESLTLSHNNMIALKPILQAWLEEAE [V36S]	-0.186 ± 0.071
RDLEAFAERFKQRRIKLGVTQADVGSALANLKIPGQGSLSQSTICRFESLTLSHNNMIALKPILQAWLEEAE [V36Q]	-0.147 ± 0.072
RDLEAFAERFKQRRIKLGVTQADVGSALANLKIPGHGSLSQSTICRFESLTLSHNNMIALKPILQAWLEEAE [V36H]	-0.267 ± 0.19
RDLEAFAERFKQRRIKLGVTQADVGSALANLKIPGFGSLSQSTICRFESLTLSHNNMIALKPILQAWLEEAE [V36F]	-0.176 ± 0.18
RDLEAFAERFKQRRIKLGVTQADVGSALANLKIPGTGSLSQSTICRFESLTLSHNNMIALKPILQAWLEEAE [V36T]	-0.417 ± 0.09
RDLEAFAERFKQRRIKLGVTQADVGSALANLKIPGEGSLSQSTICRFESLTLSHNNMIALKPILQAWLEEAE [V36E]	-0.139 ± 0.12
RDLEAFAERFKQRRIKLGVTQADVGSALANLKIPGVISLSQSTICRFESLTLSHNNMIALKPILQAWLEEAE [G37I]	-0.587 ± 0.28
RDLEAFAERFKQRRIKLGVTQADVGSALANLKIPGVESLSQSTICRFESLTLSHNNMIALKPILQAWLEEAE [G37E]	-0.207 ± 0.12
RDLEAFAERFKQRRIKLGVTQADVGSALANLKIPGVNSLSQSTICRFESLTLSHNNMIALKPILQAWLEEAE [G37N]	-0.309 ± 0.28

Variant	abundance fitness
RDLEAFAERFKQRRIKLGVTQADVGSALANLKIPGVASLSQSTICRFESLTLSHNNMIALKPILQAWLEEAE [G37A]	-0.098 ± 0.066
RDLEAFAERFKQRRIKLGVTQADVGSALANLKIPGVRSLSQSTICRFESLTLSHNNMIALKPILQAWLEEAE [G37R]	-0.111 ± 0.055
RDLEAFAERFKQRRIKLGVTQADVGSALANLKIPGVPSLSQSTICRFESLTLSHNNMIALKPILQAWLEEAE [G37P]	-0.2 ± 0.1
RDLEAFAERFKQRRIKLGVTQADVGSALANLKIPGVKSLSQSTICRFESLTLSHNNMIALKPILQAWLEEAE [G37K]	-0.209 ± 0.11
RDLEAFAERFKQRRIKLGVTQADVGSALANLKIPGVDSLSQSTICRFESLTLSHNNMIALKPILQAWLEEAE [G37D]	-0.198 ± 0.18
RDLEAFAERFKQRRIKLGVTQADVGSALANLKIPGVLSLSQSTICRFESLTLSHNNMIALKPILQAWLEEAE [G37L]	-0.205 ± 0.074
RDLEAFAERFKQRRIKLGVTQADVGSALANLKIPGVQSLSQSTICRFESLTLSHNNMIALKPILQAWLEEAE [G37Q]	-0.015 ± 0.097
RDLEAFAERFKQRRIKLGVTQADVGSALANLKIPGVFSLSQSTICRFESLTLSHNNMIALKPILQAWLEEAE [G37F]	-0.398 ± 0.12
RDLEAFAERFKQRRIKLGVTQADVGSALANLKIPGVCSLSQSTICRFESLTLSHNNMIALKPILQAWLEEAE [G37C]	-0.118 ± 0.092
RDLEAFAERFKQRRIKLGVTQADVGSALANLKIPGVHSLSQSTICRFESLTLSHNNMIALKPILQAWLEEAE [G37H]	0.083 ± 0.16
RDLEAFAERFKQRRIKLGVTQADVGSALANLKIPGVMSLSQSTICRFESLTLSHNNMIALKPILQAWLEEAE [G37M]	-0.163 ± 0.085
RDLEAFAERFKQRRIKLGVTQADVGSALANLKIPNVGSLSQSTICRFESLTLSHNNMIALKPILQAWLEEAE [G35N]	-0.116 ± 0.24
RDLEAFAERFKQRRIKLGVTQADVGSALANLKIPTVGSLSQSTICRFESLTLSHNNMIALKPILQAWLEEAE [G35T]	-0.365 ± 0.12
RDLEAFAERFKQRRIKLGVTQADVGSALANLKIPWVGSLSQSTICRFESLTLSHNNMIALKPILQAWLEEAE [G35W]	-0.525 ± 0.23
RDLEAFAERFKQRRIKLGVTQADVGSALANLKIPYVGSLSQSTICRFESLTLSHNNMIALKPILQAWLEEAE [G35Y]	-0.763 ± 0.32
RDLEAFAERFKQRRIKLGVTQADVGSALANLKIPPVGSLSQSTICRFESLTLSHNNMIALKPILQAWLEEAE [G35P]	-0.77 ± 0.13
RDLEAFAERFKQRRIKLGVTQADVGSALANLKIPSVGSLSQSTICRFESLTLSHNNMIALKPILQAWLEEAE [G35S]	-0.228 ± 0.082
RDLEAFAERFKQRRIKLGVTQADVGSALANLKIPVVGSLSQSTICRFESLTLSHNNMIALKPILQAWLEEAE [G35V]	-0.299 ± 0.092
RDLEAFAERFKQRRIKLGVTQADVGSALANLKIPRVGSLSQSTICRFESLTLSHNNMIALKPILQAWLEEAE [G35R]	-0.153 ± 0.1
